The text below walks through data of patent US20200040088A1 (Kyowa Kirin, published 2020).

In test [1] the target is T1, mouse IL-5Rα expressed on cells (Ba/F3 cells stably expressing mouse IL-5Rα); Expi293F cells transiently … (mouse, UniProt P21183 18-415).
T1 construct: whole, on cells; also called IL-5Rα-expressing Ba/F3 cells; IL5Ra-expressing Ba/F3 cells
T1 sequence (looked up): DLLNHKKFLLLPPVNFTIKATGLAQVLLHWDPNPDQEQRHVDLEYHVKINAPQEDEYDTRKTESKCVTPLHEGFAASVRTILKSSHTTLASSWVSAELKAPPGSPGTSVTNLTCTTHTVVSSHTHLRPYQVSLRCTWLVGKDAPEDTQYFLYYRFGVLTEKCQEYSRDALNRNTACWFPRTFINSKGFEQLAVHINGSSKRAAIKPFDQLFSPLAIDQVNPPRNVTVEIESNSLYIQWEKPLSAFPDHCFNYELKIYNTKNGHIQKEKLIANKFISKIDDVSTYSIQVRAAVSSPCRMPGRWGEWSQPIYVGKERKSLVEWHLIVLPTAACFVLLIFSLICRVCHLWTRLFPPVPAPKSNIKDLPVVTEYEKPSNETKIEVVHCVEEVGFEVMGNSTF
Nature of the test: flow cytometry on mouse IL-5Rα-expressing Ba/F3 cells, detected with Alexa Fluor 647 goat anti-mouse IgG (H+L), geometric mean fluorescence; parental Ba/F3 cells as negative control. Here is the method:
Ba/F3 cells or IL-5Rα-expressing Ba/F3 cells were suspended at a cell density of 1×10⁶ cells/mL in FACS buffer 1. The cell suspension was inoculated at 100 μL/well ([…]) to a 96-well U-form plate. The cm1B12 antibody was diluted into final concentrations of 0.0003, 0.001, 0.003, 0.01, 0.03, 0.1, 0.3, 1, 3, and 10 μg/mL with FACS buffer 1, added at 100 μL/well, and reacted for 1 hour on ice. After washing with FACS buffer 1, Alexa Fluor® 647 Goat anti-mouse IgG (H+L) (Life Technologies Corp.) diluted into 5 μg/mL with FACS buffer 1 was added at 100 μL/well and reacted for 1 hour on ice. After washing with FACS buffer 1, the fluorescence intensity (geometric mean) was measured using a flow cytometer Canto II (Becton, Dickinson and Company).
(In flow cytometry, cells or beads pass a laser one at a time.)

For test [2], the target named is T2, Mouse IL-5Rα-Fc (R&D Systems Inc.) (mouse, UniProt P21183 18-339).
T2 construct: Bought reagent; not shown: Fc part
T2 sequence (looked up): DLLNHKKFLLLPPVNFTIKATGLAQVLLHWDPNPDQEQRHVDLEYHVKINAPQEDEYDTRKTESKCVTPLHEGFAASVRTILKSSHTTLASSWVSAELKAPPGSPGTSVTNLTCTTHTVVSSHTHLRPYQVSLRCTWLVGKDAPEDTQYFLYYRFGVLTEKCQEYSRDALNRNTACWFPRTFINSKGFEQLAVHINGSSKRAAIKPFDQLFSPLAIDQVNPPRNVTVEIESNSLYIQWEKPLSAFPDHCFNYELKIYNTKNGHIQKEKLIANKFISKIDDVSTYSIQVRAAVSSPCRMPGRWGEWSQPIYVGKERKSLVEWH
Nature of the test: SPR, Biacore T200; mouse IL-5Rα-Fc captured on anti-human IgG (Fc); cm1B12 as analyte; bivalent analyte model. As to the method:
The binding activity of the cm1B12 antibody to mouse IL-5Rα-Fc was analyzed using Biacore T200. Anti-Human IgG (Fc) was immobilized at about 9000 RU onto CM5 sensor chip (GE Healthcare) using Human Antibody Capture Kit (GE Healthcare) according to the attached instruction. Mouse IL-5Rα-Fc (R&D Systems Inc.) dissolved at 1 μg/mL in HBS-EP(+) was captured as a ligand at a flow rate of 30 μL/min for 20 seconds. Then, the cm1B12 antibody serially diluted into concentrations of 1000.00, 333.33, 111.11, 37.04, 12.35, and 4.12 ng/mL was added thereto as an analyte by the multicycle method.
The operation was performed under conditions involving a flow rate of 30 μL/min, and a contact time and a dissociation time of 120 seconds and 600 seconds, respectively. The analysis was carried out using Biacore T200 Evaluation software in the Surface bound and Bivalent Analyte mode.
A general note: Surface plasmon resonance follows binding to a sensor surface in real time, without labels.

B1: rat/mouse chimera type 1B12 antibody (antibody, V domains shown)
VH: VQLVESDGGLVQPGRSLKLSCAASGFTFSDFYMAWVRQAPTKGLEWVATISYDGSSAYYRDSVKGRFTISRDNAKSTLYLQMDSLSSEDTATYYCARHDGYYPFDYWGQGVMVTVSS
VL: DIRMTQSPASLSASLGETVNIECLASEDIYSDLAWYQQKPGKSPQLLIYDANSLQNGVPSRFSGSGSGTQYSLKINSLQSEDVATYFCQQYNNYWTFGGGTKLELK
notes: also called cm1B12 antibody; cm1B12
Take B1: the “EC50 (read off the curve)” value in test [1] is approximately 0.05 µg/mL. In test [2], this molecule yielded a Kd of 0.0317 nM, a koff of 0.000126 s⁻¹ and a kon of 4.1e+06 M⁻¹ s⁻¹.

As a reminder, the EC50 (read off the curve) is the concentration giving half of the maximal effect. The koff is the first-order rate constant of dissociation. Usually kon stands for a measure of how fast the partners come together. A high value points to fast association.
